Reference: article PMC11796359, “Identification and characterization of the functional tetrameric UDP-glucose pyrophosphorylase from Klebsiella pneumoniae” (mBio, 2024)
Changes are numbered by the printed parent chain. Numbers in names are those of the source.

B1: Klebsiella pneumoniae UDP-glucose pyrophosphorylase (galU gene product), wild type (enzyme, UniProt A6TAK9 1-300, looked up)
chain: MAALNSKVRKAVIPVAGLGTRMLPATKAIPKEMLPLVDKPLIQYVVNECIAAGITEIVLVTHSSKNSIENHFDTSFELEAMLEKRVKRQLLEEVQSICPPHVTIMQVRQGLAKGLGHAVLCAHPVVGDEPVAVILPDVILDEYESDLSRDNLAEMISRFDETGASQIMVEPVEDVTAYGVVDCKGESLKPGESVPMVGVVEKPKADVAPSNLAVVGRYVLSADIWPLLAKTPPGAGDEIQLTDAIDMLIEKETVEAYHMKGKSHDCGNKLGYMQAFVEYGIRHKTLGDDFKAWLETAVAK
notes: UDP-glucose pyrophosphorylase (galU gene product) of K. pneumoniae subsp. pneumoniae type strain DSM 30104 (ATCC 13883, NCTC 9633), cloned from genomic DNA; UniProt entry printed for the AlphaFold query; 34.6 kDa with tag; no cleavage of the tag is described; Also made from pETDuet-1 with the same oligomeric state; also called KpUGP; KpUGP wt; not shown: Strep-tagII, N-terminal, kept
B2: KpUGP E69D (enzyme)
chain: B1 chain with E69D
notes: UDP-glucose pyrophosphorylase (galU gene product) of K. pneumoniae DSM 30104; mutant of Strep-KpUGP; tag as in m1; no cleavage described
B3: KpUGP D38A (enzyme)
chain: B1 chain with D38A
notes: as for B2
B4: KpUGP K27A (enzyme)
chain: B1 chain with K27A
notes: as for B2
B5: KpUGP R108A (enzyme)
chain: B1 chain with R108A
notes: as for B2
B6: KpUGP D73N (enzyme)
chain: B1 chain with D73N
notes: as for B2
B7: KpUGP R108K (enzyme)
chain: B1 chain with R108K
notes: UDP-glucose pyrophosphorylase (galU gene product) of K. pneumoniae DSM 30104; mutant of Strep-KpUGP; tag as in m1; no cleavage described; also called R108R (as printed once in the text)
B8: KpUGP E238Q (enzyme)
chain: B1 chain with E238Q
notes: as for B2
B9: KpUGP D73A (enzyme)
chain: B1 chain with D73A
notes: UDP-glucose pyrophosphorylase (galU gene product) of K. pneumoniae DSM 30104; mutant of Strep-KpUGP; tag as in m1; no cleavage described; dissociates progressively during storage on ice
B10: KpUGP E69A (enzyme)
chain: B1 chain with E69A
notes: as for B2
B11: KpUGP F276A (enzyme)
chain: B1 chain with F276A
notes: as for B2
B12: KpUGP K65R (enzyme)
chain: B1 chain with K65R
notes: as for B2
B13: KpUGP K27Q (enzyme)
chain: B1 chain with K27Q
notes: UDP-glucose pyrophosphorylase (galU gene product) of K. pneumoniae DSM 30104; mutant of Strep-KpUGP; tag as in m1; no cleavage described; eluted predominantly as dimers
B14: KpUGP K65A (enzyme)
chain: B1 chain with K65A
notes: as for B2
B15: KpUGP F276H (enzyme)
chain: B1 chain with F276H
notes: as for B2
B16: KpUGP K10A (enzyme)
chain: B1 chain with K10A
notes: as for B2
B17: KpUGP K10R (enzyme)
chain: B1 chain with K10R
notes: as for B2
B18: KpUGP E238A (enzyme)
chain: B1 chain with E238A
notes: as for B2
B19: KpUGP E77A (enzyme)
chain: B1 chain with E77A
notes: as for B2
B20: KpUGP E77Q (enzyme)
chain: B1 chain with E77Q
notes: as for B2
B21: KpUGP D38N (enzyme)
chain: B1 chain with D38N
notes: as for B2
B22: KpUGP E32A (enzyme)
chain: B1 chain with E32A
notes: UDP-glucose pyrophosphorylase (galU gene product) of K. pneumoniae DSM 30104; active site mutant of Strep-KpUGP; tag as in m1; the discussion speaks only of the mutant of E32; also called E32 mutant
B23: Klebsiella pneumoniae GalF (galF gene product), wild type (natural protein, UniProt Q48447 1-298, looked up)
chain: MNMANLKAVIPVAGLGMHMLPATKAIPKEMLPIVDKPMIQYIVDEIVAAGIKEIVLVTHSSKNAVENHFDTSYELEALLEQRVKRQLLAEVQAICPPGVTIMNVRQAQPLGLGHSILCARPVVGDNPFVVVLPDIILDGGTADPLRYNLAAMIARFNETGRSQVLAKRMPGDLSEYSVIQTKEPMVAEGQVARIVEFIEKPDEPQTLDSDLMAVGRYVLSADIWAELERTEPGAWGRIQLTDAIAELAKKQSVDAMLMTGESYDCGKKMGYMQAFVTYGMRNLKEGAKFRESIKKLLA
notes: GalF (galF gene product) of K. pneumoniae subsp. pneumoniae type strain DSM 30104 (ATCC 13883, NCTC 9633), cloned from genomic DNA into MCS1 of pETDuet-1; UniProt entry printed for the AlphaFold query; 34.3 kDa with tag; no cleavage of the tag is described; also called KpGalF; KpGalF wt
B24: KpGalF M17T/H18R/S115A/S177G/R237E (natural protein)
chain: B23 chain with M17T, H18R, S115A, S177G, R237E
notes: GalF (galF gene product) of K. pneumoniae DSM 30104; mutant of His-KpGalF; also called KpGalF quintuple mutant; quintuple revertant mutant
B25: KpUGP E238R (enzyme)
chain: B1 chain with E238R
notes: UDP-glucose pyrophosphorylase (galU gene product) of K. pneumoniae DSM 30104; mutant of Strep-KpUGP that mimics R237 of KpGalF; tag as in m1; no cleavage described

Biological target: the molecule itself
Assay: not stated; data not shown; KpUGP in HEPES-NaOH (pH 8.0) buffer

| Protein | stoichiometry N |
| --- | --- |
| B1 | 4 |

Biological target: the molecule itself
Assay: SEC; Superose 6 Increase 10/300 GL; 50 mM Tris-HCl (pH 8.0), 300 mM NaCl, 10 mM MgCl2; oligomeric state calculated from elution volumes of proteins of known size

| Protein | stoichiometry N |
| --- | --- |
| B1 | 4.5 |
| B2 | 4.6 |
| B3 | 4.1 |
| B4 | 2.1 |
| B5 | 2.2 |
| B6 | 2.4 |
| B7 | 2.4 |
| B8 | 4.4 |
| B9 | 2.7 |
| B10 | 4.4 |
| B11 | 4.6 |
| B12 | 2.4 |
| B13 | 2.2 |
| B14 | 2 |
| B15 | 4.5 |
| B16 | 3.1 |
| B17 | 4.5 |
| B18 | 4.4 |
| B19 | 4.5 |
| B20 | 4.6 |
| B21 | 4.2 |

Biological target: the molecule itself
Assay: SEC; Superdex 200 10/300 GL (KpUGP active site mutants); 50 mM Tris-HCl (pH 8.0), 300 mM NaCl, 10 mM MgCl2

| Protein | stoichiometry N |
| --- | --- |
| B22 | 2 |

Biological target: the molecule itself
Assay: native gel or EMSA; blue native PAGE, 4.5 µg of each protein on a uniform 12% native gel, followed by in-gel activity staining

| Protein | stoichiometry N |
| --- | --- |
| B2 | 4 |
| B3 | 4 |
| B8 | 4 |
| B10 | 4 |
| B11 | 4 |
| B15 | 4 |
| B17 | 4 |
| B18 | 4 |
| B19 | 4 |
| B20 | 4 |
| B21 | 4 |

Biological target: the molecule itself
Assay: SEC; Superose 6 Increase 10/300 GL; 50 mM Tris-HCl (pH 8.0), 300 mM NaCl, 10 mM MgCl2; oligomeric state calculated from elution volumes of proteins of known size
Remark: another data set of the same source

| Protein | stoichiometry N |
| --- | --- |
| B23 | 1.9 |
| B24 | 1.7 |
| B25 | 3.1 |
